One assay deals with HLA-A*30:01. Briefly: IEDB peptide-MHC binding, purified MHC/competitive/fluorescence; filed as Kd, often an IC50 or EC50 that approximates it; ≥ and ≤ were set here for values at or beyond the usual limits of such assays. The following applies: source organism: Human immunodeficiency virus 1.
For a further assay, the target named is HLA-C*05:01. Briefly: IEDB peptide-MHC binding, purified MHC/direct/fluorescence; filed as Kd, often an IC50 or EC50 that approximates it; ≥ and ≤ were set here for values at or beyond the usual limits of such assays. The following applies: source organism: Brucella abortus S19.
For the next assay, the target named is HLA-A*02:12. The description is as above.
Assay [1] concerns the target HLA-A*02:01. The description is as above.
Assay [2] concerns the target HLA-A*69:01. The description is as above.
The next assay has as its target HLA-A*02:50. Briefly: IEDB peptide-MHC binding, purified MHC/competitive/fluorescence; filed as Kd, often an IC50 or EC50 that approximates it; ≥ and ≤ were set here for values at or beyond the usual limits of such assays.
The target of another assay is HLA-A*02:19. Briefly: IEDB peptide-MHC binding, purified MHC/direct/fluorescence; filed as Kd, often an IC50 or EC50 that approximates it; ≥ and ≤ were set here for values at or beyond the usual limits of such assays.
A further assay deals with HLA-A*02:11. Described as above.
The target in a further assay is HLA-A*03:01. The description is as above.
The target of another assay is HLA-A*24:03. The description is as above.
The next assay addresses HLA-A*11:01. The assay is described as above.
The target of another assay is HLA-A*02:03. The description is as above.
For the next assay, the target named is HLA-A*23:01. The description is as above.
In another assay the target is HLA-A*68:02. The assay is described as above.
The target in the next assay is HLA-A*02:16. The assay is described as above.
Assay [3] concerns the target HLA-A*26:01. Briefly: IEDB peptide-MHC binding, purified MHC/competitive/fluorescence; filed as Kd, often an IC50 or EC50 that approximates it; ≥ and ≤ were set here for values at or beyond the usual limits of such assays.
Another assay deals with HLA-B*39:01. Described as above.
Another assay has as its target HLA-B*27:03. The description is as above.
A further assay has as its target HLA-B*51:01. Described as above.
In assay [4] the target is HLA-A*02:01. The assay is described as above.
Assay [5] concerns the target HLA-A*69:01. Described as above.
The target in the next assay is HLA-B*18:01. Described as above.
A further assay concerns the target HLA-B*27:05. Briefly: IEDB peptide-MHC binding, purified MHC/direct/fluorescence; filed as Kd, often an IC50 or EC50 that approximates it; ≥ and ≤ were set here for values at or beyond the usual limits of such assays.
The next assay has as its target HLA-B*58:01. The assay is described as above.
Assay [6] addresses HLA-B*15:01. Described as above.
The target of another assay is HLA-B*07:02. The assay is described as above. To be noted: source organism: Vibrio cholerae.
A further assay addresses HLA-B*08:01. The assay is described as above. The following applies: source organism: Vibrio cholerae.
Assay [7] has as its target HLA-A*26:01. The assay is described as above.
The target of another assay is HLA-B*40:01. Described as above.
For a further assay, the target named is HLA-A*31:01. The assay is described as above.
In another assay the target is HLA-A*01:01. The assay is described as above.
The next assay deals with HLA-B*44:02. The description is as above. To be noted: source organism: Vibrio cholerae.
For a further assay, the target named is HLA-C*14:02. The description is as above. To be noted: source organism: Vibrio vulnificus YJ016.
In another assay the target is HLA-C*04:01. Described as above.
In a further assay the target is HLA-A*29:02. The assay is described as above. The following applies: source organism: Zaire ebolavirus.
The target in the next assay is HLA-B*57:01. Briefly: IEDB peptide-MHC binding, purified MHC/competitive/fluorescence; filed as Kd, often an IC50 or EC50 that approximates it; ≥ and ≤ were set here for values at or beyond the usual limits of such assays. To be noted: source organism: Zaire ebolavirus.
For assay [8], the target named is HLA-B*15:01. The description is as above. The following applies: source organism: Zaire ebolavirus.
Another assay has as its target HLA-B*46:01. The description is as above. To be noted: source organism: Zaire ebolavirus.
For a further assay, the target named is HLA-C*03:03. Briefly: IEDB peptide-MHC binding, purified MHC/direct/fluorescence; filed as Kd, often an IC50 or EC50 that approximates it; ≥ and ≤ were set here for values at or beyond the usual limits of such assays. To be noted: source organism: Bacillus anthracis str. A0193.
[9] abbreviates: source organism: Brucella abortus 2308.
Setting [10] is: source organism: Cryptosporidium parvum Iowa II.
Setting [11] is: source organism: Vibrio cholerae.
Setting [12] is: source organism: Zaire ebolavirus.
[13] abbreviates: source organism: Haemophilus influenzae.

The values below come from the Immune Epitope Database (IEDB).

The Kd is the concentration at which binding is half-saturated. Higher therefore signals a looser complex. For EELRSLYNTV, the dissociation constant Kd in the assay with HLA-A*30:01 was at least 20 µM.
For YVDIIGLSV, the Kd was 0.002 µM in the assay with HLA-C*05:01; 0.005 µM with HLA-A*02:12 (source organism: Brucella suis 1330); 0.056 µM in the assay with HLA-A*02:01 [1] (setting [9]); 0.0085 µM with HLA-A*69:01 [2] (setting [9]); 0.0091 µM with HLA-A*02:50 (source organism: Brucella abortus S19).
Regarding MSQMPPHPY, the Kd in the assay with HLA-A*02:19 (setting [10]) was at least 20 µM; with HLA-A*02:11 (setting [10]) it was at least 20 µM; with HLA-A*03:01 (setting [10]), at least 20 µM; in the assay with HLA-A*24:03 (setting [10]) it was at least 20 µM; with HLA-A*11:01 (setting [10]), 0.377 µM; with HLA-A*02:03 (setting [10]), at least 20 µM. The Kd in the assay with HLA-A*02:12 (setting [10]), in the assay with HLA-A*23:01 (setting [10]), in the assay with HLA-A*68:02 (setting [10]), with HLA-A*02:16 (setting [10]), in the assay with HLA-A*26:01 [3] (setting [10]) and in the assay with HLA-B*39:01 (setting [10]) was at least 20 µM throughout. Moreover, the Kd in the assay with HLA-B*27:03 (setting [10]), with HLA-B*51:01 (setting [10]), with HLA-A*02:01 [4] (setting [10]), with HLA-A*69:01 [5] (setting [10]) and with HLA-B*18:01 (setting [10]) was at least 20 µM in each case.
Turning to ALYWALMES, the Kd with HLA-B*27:05 (setting [11]), with HLA-B*58:01 (setting [11]), in the assay with HLA-B*15:01 [6] (setting [11]), with HLA-B*07:02, in the assay with HLA-B*08:01 and with HLA-A*03:01 (setting [11]) was at least 20 µM throughout. The dissociation constant Kd in the assay with HLA-A*24:03 (setting [11]), with HLA-A*26:01 [7] (setting [11]), with HLA-A*11:01 (setting [11]), in the assay with HLA-B*40:01 (setting [11]), with HLA-A*31:01 (setting [11]) and with HLA-A*01:01 (setting [11]) was at least 20 µM each time. The Kd was at least 20 µM with HLA-B*44:02, 0.021 µM in the assay with HLA-A*02:01 [1] (setting [11]), at least 20 µM in the assay with HLA-A*69:01 [2] (setting [11]) and 0.0002 µM in the assay with HLA-A*02:50 (source organism: Vibrio cholerae 2740-80).
On to AYFLEAQEM, for which the Kd was at most 0.001 µM with HLA-C*14:02, 0.0036 µM in the assay with HLA-A*24:03 (source organism: Vibrio vulnificus) and at least 20 µM with HLA-C*04:01 (source organism: Vibrio vulnificus YJ016).
Take LTDRELLLL: the Kd is at least 20 µM in the assay with HLA-A*02:19 (setting [12]); at least 20 µM in the assay with HLA-A*02:11 (setting [12]); at least 20 µM in the assay with HLA-A*03:01 (setting [12]); at least 20 µM with HLA-A*24:03 (setting [12]); at least 20 µM with HLA-A*02:03 (setting [12]); 0.255 µM with HLA-A*01:01 (source organism: Sudan ebolavirus - Uganda (2000)). In addition, the dissociation constant (Kd) with HLA-A*02:12 (setting [12]), with HLA-A*23:01 (setting [12]), with HLA-A*68:02 (setting [12]), with HLA-A*02:16 (setting [12]), in the assay with HLA-A*29:02 and in the assay with HLA-B*57:01 was at least 20 µM in each case. In addition, the Kd with HLA-B*15:01 [8], with HLA-A*26:01 [3] (setting [12]), with HLA-B*39:01 (setting [12]), with HLA-B*27:03 (setting [12]), with HLA-B*51:01 (setting [12]) and with HLA-A*02:01 [4] (setting [12]) was at least 20 µM in each case. The Kd with HLA-B*46:01, with HLA-A*69:01 [5] (setting [12]) and with HLA-B*18:01 (setting [12]) was at least 20 µM in each case.
Turning to FLADYRGKT, the Kd with HLA-B*27:05 (setting [13]), in the assay with HLA-B*58:01 (setting [13]), with HLA-B*15:01 [6] (setting [13]), in the assay with HLA-A*03:01 (setting [13]), with HLA-A*26:01 [7] (setting [13]) and with HLA-A*11:01 (setting [13]) was at least 20 µM each time. Moreover, the Kd with HLA-B*40:01 (setting [13]) was at least 20 µM; in the assay with HLA-A*31:01 (setting [13]), at least 20 µM; with HLA-A*01:01 (setting [13]), at least 20 µM; with HLA-A*02:01 [1] (setting [13]) it was 1.36 µM; with HLA-A*69:01 [2] (setting [13]), at least 20 µM; with HLA-A*02:50 (source organism: Haemophilus influenzae R2846), 0.0019 µM.
As to YAIYTLGEM, the Kd with HLA-C*04:01 (source organism: Bacillus anthracis str. A0193) was at least 20 µM; with HLA-C*03:03, at most 0.001 µM.
